Article PMC7251641

Substrate: Nc1ncnc2c1ncn2[C@@H]1O[C@H](COP(=O)(O)OP(=O)(O)OP(=O)(O)O)[C@@H](O)[C@H]1O
Assay: real-time fluorescent phosphate-release ATPase assay
Type: biochemical, Saccharomyces cerevisiae
Conditions: nucleosome-stimulated, 15 nM nucleosomes, 23 °C

B1: SWI/SNF (Saccharomyces cerevisiae S288C) (protein)
chain: MNIPQRQFSNEEVNRCYLRWQHLRNEHGMNAPSVPEFIYLTKVLQFAAKQRQELQMQRQQQGISGSQQNIVPNSSDQAELPNNASSHISASASPHLAPNMQLNGNETFSTSAHQSPIMQTQMPLNSNGGNNMLPQRQSSVGSLNATNFSPTPANNGENAAEKPDNSNHNNLNLNNSELQPQNRSLQEHNIQDSNVMPGSQINSPMPQQAQMQQAQFQAQQAQQAQQAQQAQQAQARLQQGRRLPMTMFTAEQSELLKAQITSLKCLVNRKPIPFEFQAVIQKSINHPPDFKRMLLSLSEFARRRQPTDQNNQSNLNGGNNTQQPGTNSHYNNTNTDNVSGLTRNAPLDSKDENFASVSPAGPSSVHNAKNGTLDKNSQTVSGTPITQTESKKEENETISNVAKTAPNSNKTHTEQNNPPKPQKPVPLNVLQDQYKEGIKVVDIDDPDMMVDSFTMPNISHSNIDYQTLLANSDHAKFTIEPGVLPVGIDTHTATDIYQTLIALNLDTTVNDCLDKLLNDECTESTRENALYDYYALQLLPLQKAVRGHVLQFEWHQNSLLTNTHPNFLSKIRNINVQDALLTNQLYKNHELLKLERKKTEAVARLKSMNKSAINQYNRRQDKKNKRLKFGHRLIATHTNLERDEQKRAEKKAKERLQALKANDEEAYIKLLDQTKDTRITHLLRQTNAFLDSLTRAVKDQQKYTKEMIDSHIKEASEEVDDLSMVPKMKDEEYDDDDDNSNVDYYNVAHRIKEDIKKQPSILVGGTLKDYQIKGLQWMVSLFNNHLNGILADEMGLGKTIQTISLLTYLYEMKNIRGPYLVIVPLSTLSNWSSEFAKWAPTLRTISFKGSPNERKAKQAKIRAGEFDVVLTTFEYIIKERALLSKVKWVHMIIDEGHRMKNAQSKLSLTLNTHYHADYRLILTGTPLQNNLPELWALLNFVLPKIFNSVKSFDEWFNTPFANTGGQDKIELSEEETLLVIRRLHKVLRPFLLRRLKKDVEKELPDKVEKVVKCKMSALQQIMYQQMLKYRRLFIGDQNNKKMVGLRGFNNQIMQLKKICNHPFVFEEVEDQINPTRETNDDIWRVAGKFELLDRILPKLKATGHRVLIFFQMTQIMDIMEDFLRYINIKYLRLDGHTKSDERSELLRLFNAPDSEYLCFILSTRAGGLGLNLQTADTVIIFDTDWNPHQDLQAQDRAHRIGQKNEVRILRLITTNSVEEVILERAYKKLDIDGKVIQAGKFDNKSTSEEQEALLRSLLDAEEERRKKRESGVEEEEELKDSEINEILARNDEEMAVLTRMDEDRSKKEEELGVKSRLLEKSELPDIYSRDIGAELKREESESAAVYNGRGARERKTATYNDNMSEEQWLRQFEVSDDEKNDKQARKQRTKKEDKSEAIDGNGEIKGENIDADNDGPRINNISAEDRADTDLAMNDDDFLSKKRKAGRPRGRPKKVKLEGSENSEPPALESSPVTGDNSPSEDFMDIPKPRTAGKTSVKSARTSTRGRGRGRGRGRGRGRGRGRPPKARNGLDYVRTPAAATSPIDIREKVAKQALDLYHFALNYENEAGRKLSDIFLSKPSKALYPDYYMIIKYPVAFDNINTHIETLAYNSLKETLQDFHLIFSNARIYNTEGSVVYEDSLELEKVVTKKYCEIMGDNSQLDFTEFDEQYGTRPLVLPPVVTSSVAESFTDEADSSMTEASV
Work on B1 yielded a Km of 80.5 µM.
